Test results published in patent US20140087995A1 (published 2014).
Numbered stars: 1 amine (or outer) side, 2 acyl side, 3 side chain; on linkers, the order of the positions; unused ones are H or OH. Bridge positions count the residues as written; N and C are the ends. Side chains are listed from the residue outwards. Ends that are not written are not given here. * marks the point of attachment. C20 diacid = O=C(O)CCCCCCCCCCCCCCCCCCC(=O)*; γGlu = O=C(O)[C@H](CCC(=O)[*:2])N[*:1]; AEEA = NCCOCCOCC(=O)O

Columns and labels:
[1] = target: T1, human amylin receptor (amylin 3(a) receptor: human calcitonin receptor co-expressed with RAMP-3) (human, UniProt P30988 25-474; O60896 24-148, limits assumed); assay: cell-based or functional assay
T1 sequence (looked up) 1: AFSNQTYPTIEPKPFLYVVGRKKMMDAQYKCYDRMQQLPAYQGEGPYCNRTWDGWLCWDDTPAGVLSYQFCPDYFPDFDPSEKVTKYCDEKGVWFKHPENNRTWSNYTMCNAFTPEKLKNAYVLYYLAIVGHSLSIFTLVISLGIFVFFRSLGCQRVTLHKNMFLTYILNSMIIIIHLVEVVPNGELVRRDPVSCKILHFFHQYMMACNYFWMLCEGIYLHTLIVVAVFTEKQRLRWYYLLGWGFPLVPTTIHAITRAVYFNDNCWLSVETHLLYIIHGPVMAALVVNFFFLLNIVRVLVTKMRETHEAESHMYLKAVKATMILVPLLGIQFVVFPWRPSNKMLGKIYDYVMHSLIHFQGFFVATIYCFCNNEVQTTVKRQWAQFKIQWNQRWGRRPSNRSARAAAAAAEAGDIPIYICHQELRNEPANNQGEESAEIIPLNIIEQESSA
T1 sequence (looked up) 2: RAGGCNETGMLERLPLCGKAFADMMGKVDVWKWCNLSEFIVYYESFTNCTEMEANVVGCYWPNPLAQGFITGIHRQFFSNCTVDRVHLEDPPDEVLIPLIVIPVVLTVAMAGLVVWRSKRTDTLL

[2] = target: T2, human calcitonin receptor (human, UniProt P30988 25-474); assay: cell-based or functional assay
T2 sequence (looked up): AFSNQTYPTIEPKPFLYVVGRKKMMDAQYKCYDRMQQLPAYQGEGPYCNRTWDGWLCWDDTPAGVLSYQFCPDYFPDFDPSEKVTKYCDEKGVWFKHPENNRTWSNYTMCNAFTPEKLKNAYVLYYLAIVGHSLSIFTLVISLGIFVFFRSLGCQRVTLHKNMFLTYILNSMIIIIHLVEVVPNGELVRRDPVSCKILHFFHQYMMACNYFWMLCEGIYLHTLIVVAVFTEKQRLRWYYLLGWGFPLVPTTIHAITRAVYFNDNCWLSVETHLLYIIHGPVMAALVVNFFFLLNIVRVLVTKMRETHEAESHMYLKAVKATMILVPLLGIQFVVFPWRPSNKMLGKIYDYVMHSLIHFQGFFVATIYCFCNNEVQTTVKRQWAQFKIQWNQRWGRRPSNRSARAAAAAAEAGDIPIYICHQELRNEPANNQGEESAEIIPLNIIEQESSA

Row | Binder | hAmylin-R funct. EC50 [1] [nM] | hCTR funct. EC50 [2] [nM] | Ratio hCT/hAmylin funct. [1]
1 | K([AEEA-γGlu-C20 diacid])CNTATCATQRLAHFLRHSSPNFGAIPSSTNVGSNTY-NH2 (disulfide 2-7; N-terminus assumed; SMILES CC[C@H](C)[C@H](NC(=O)[C@H](C)NC(=O)CNC(=O)[C@H](Cc1ccccc1)NC(=O)[C@H](CC(N)=O)NC(=O)[C@@H]1CCCN1C(=O)[C@H](CO)NC(=O)[C@H](CO)NC(=O)[C@H](Cc1c[nH]cn1)NC(=O)[C@H](CCCNC(=N)N)NC(=O)[C@H](CC(C)C)NC(=O)[C@H](Cc1ccccc1)NC(=O)[C@H](Cc1c[nH]cn1)NC(=O)[C@H](C)NC(=O)[C@H](CC(C)C)NC(=O)[C@H](CCCNC(=N)N)NC(=O)[C@H](CCC(N)=O)NC(=O)[C@@H](NC(=O)[C@H](C)NC(=O)[C@@H]1CSSC[C@H](NC(=O)[C@@H](N)CCCCNC(=O)COCCOCCNC(=O)CC[C@H](NC(=O)CCCCCCCCCCCCCCCCCCC(=O)O)C(=O)O)C(=O)N[C@@H](CC(N)=O)C(=O)N[C@@H]([C@@H](C)O)C(=O)N[C@@H](C)C(=O)N[C@@H]([C@@H](C)O)C(=O)N1)[C@@H](C)O)C(=O)N1CCC[C@H]1C(=O)N[C@@H](CO)C(=O)N[C@@H](CO)C(=O)N[C@H](C(=O)N[C@@H](CC(N)=O)C(=O)N[C@H](C(=O)NCC(=O)N[C@@H](CO)C(=O)N[C@@H](CC(N)=O)C(=O)N[C@H](C(=O)N[C@@H](Cc1ccc(O)cc1)C(N)=O)[C@@H](C)O)C(C)C)[C@@H](C)O, also called compound 69) | 0.094 | 1.25 | –
2 | K([AEEA-AEEA-γGlu-C20 diacid])CNTATCATQRLANFLRHSSPNFGAIPSSTPVGSNTY-NH2 (disulfide 2-7; N-terminus assumed; SMILES CC[C@H](C)[C@H](NC(=O)[C@H](C)NC(=O)CNC(=O)[C@H](Cc1ccccc1)NC(=O)[C@H](CC(N)=O)NC(=O)[C@@H]1CCCN1C(=O)[C@H](CO)NC(=O)[C@H](CO)NC(=O)[C@H](Cc1c[nH]cn1)NC(=O)[C@H](CCCNC(=N)N)NC(=O)[C@H](CC(C)C)NC(=O)[C@H](Cc1ccccc1)NC(=O)[C@H](CC(N)=O)NC(=O)[C@H](C)NC(=O)[C@H](CC(C)C)NC(=O)[C@H](CCCNC(=N)N)NC(=O)[C@H](CCC(N)=O)NC(=O)[C@@H](NC(=O)[C@H](C)NC(=O)[C@@H]1CSSC[C@H](NC(=O)[C@@H](N)CCCCNC(=O)COCCOCCNC(=O)COCCOCCNC(=O)CC[C@H](NC(=O)CCCCCCCCCCCCCCCCCCC(=O)O)C(=O)O)C(=O)N[C@@H](CC(N)=O)C(=O)N[C@@H]([C@@H](C)O)C(=O)N[C@@H](C)C(=O)N[C@@H]([C@@H](C)O)C(=O)N1)[C@@H](C)O)C(=O)N1CCC[C@H]1C(=O)N[C@@H](CO)C(=O)N[C@@H](CO)C(=O)N[C@H](C(=O)N1CCC[C@H]1C(=O)N[C@H](C(=O)NCC(=O)N[C@@H](CO)C(=O)N[C@@H](CC(N)=O)C(=O)N[C@H](C(=O)N[C@@H](Cc1ccc(O)cc1)C(N)=O)[C@@H](C)O)C(C)C)[C@@H](C)O, also called compound 96) | 0.181 | 3.8 | –
3 | K([AEEA-AEEA-γGlu-C20 diacid])CNTATCATQRLANFLRHSSPNFGAIPSSTNVGRNTY-NH2 (disulfide 2-7; N-terminus assumed; SMILES CC[C@H](C)[C@H](NC(=O)[C@H](C)NC(=O)CNC(=O)[C@H](Cc1ccccc1)NC(=O)[C@H](CC(N)=O)NC(=O)[C@@H]1CCCN1C(=O)[C@H](CO)NC(=O)[C@H](CO)NC(=O)[C@H](Cc1c[nH]cn1)NC(=O)[C@H](CCCNC(=N)N)NC(=O)[C@H](CC(C)C)NC(=O)[C@H](Cc1ccccc1)NC(=O)[C@H](CC(N)=O)NC(=O)[C@H](C)NC(=O)[C@H](CC(C)C)NC(=O)[C@H](CCCNC(=N)N)NC(=O)[C@H](CCC(N)=O)NC(=O)[C@@H](NC(=O)[C@H](C)NC(=O)[C@@H]1CSSC[C@H](NC(=O)[C@@H](N)CCCCNC(=O)COCCOCCNC(=O)COCCOCCNC(=O)CC[C@H](NC(=O)CCCCCCCCCCCCCCCCCCC(=O)O)C(=O)O)C(=O)N[C@@H](CC(N)=O)C(=O)N[C@@H]([C@@H](C)O)C(=O)N[C@@H](C)C(=O)N[C@@H]([C@@H](C)O)C(=O)N1)[C@@H](C)O)C(=O)N1CCC[C@H]1C(=O)N[C@@H](CO)C(=O)N[C@@H](CO)C(=O)N[C@H](C(=O)N[C@@H](CC(N)=O)C(=O)N[C@H](C(=O)NCC(=O)N[C@@H](CCCNC(=N)N)C(=O)N[C@@H](CC(N)=O)C(=O)N[C@H](C(=O)N[C@@H](Cc1ccc(O)cc1)C(N)=O)[C@@H](C)O)C(C)C)[C@@H](C)O, also called compound 95) | 0.651 | 21.5 | –
4 | K([AEEA-C20 diacid])CNTATCATQRLANFLRHSSPNFGAIPSSTNVGHNTY-NH2 (disulfide 2-7; N-terminus assumed; SMILES CC[C@H](C)[C@H](NC(=O)[C@H](C)NC(=O)CNC(=O)[C@H](Cc1ccccc1)NC(=O)[C@H](CC(N)=O)NC(=O)[C@@H]1CCCN1C(=O)[C@H](CO)NC(=O)[C@H](CO)NC(=O)[C@H](Cc1c[nH]cn1)NC(=O)[C@H](CCCNC(=N)N)NC(=O)[C@H](CC(C)C)NC(=O)[C@H](Cc1ccccc1)NC(=O)[C@H](CC(N)=O)NC(=O)[C@H](C)NC(=O)[C@H](CC(C)C)NC(=O)[C@H](CCCNC(=N)N)NC(=O)[C@H](CCC(N)=O)NC(=O)[C@@H](NC(=O)[C@H](C)NC(=O)[C@@H]1CSSC[C@H](NC(=O)[C@@H](N)CCCCNC(=O)COCCOCCNC(=O)CCCCCCCCCCCCCCCCCCC(=O)O)C(=O)N[C@@H](CC(N)=O)C(=O)N[C@@H]([C@@H](C)O)C(=O)N[C@@H](C)C(=O)N[C@@H]([C@@H](C)O)C(=O)N1)[C@@H](C)O)C(=O)N1CCC[C@H]1C(=O)N[C@@H](CO)C(=O)N[C@@H](CO)C(=O)N[C@H](C(=O)N[C@@H](CC(N)=O)C(=O)N[C@H](C(=O)NCC(=O)N[C@@H](Cc1c[nH]cn1)C(=O)N[C@@H](CC(N)=O)C(=O)N[C@H](C(=O)N[C@@H](Cc1ccc(O)cc1)C(N)=O)[C@@H](C)O)C(C)C)[C@@H](C)O, also called compound 91) [N^ε1-[2-[2-[2-(19-carboxynonadecanoylamino)ethoxy]ethoxy]acetyl]-[Arg17,Pro21,Pro27,His34]-h-amylin] | 0.04 | 1.48 | 36.9
5 | K([AEEA-γGlu-C20 diacid])CNTATCATQRLARFLRHSSPNFGAIPSSTPVGSNTY-NH2 (disulfide 2-7; N-terminus assumed; SMILES CC[C@H](C)[C@H](NC(=O)[C@H](C)NC(=O)CNC(=O)[C@H](Cc1ccccc1)NC(=O)[C@H](CC(N)=O)NC(=O)[C@@H]1CCCN1C(=O)[C@H](CO)NC(=O)[C@H](CO)NC(=O)[C@H](Cc1c[nH]cn1)NC(=O)[C@H](CCCNC(=N)N)NC(=O)[C@H](CC(C)C)NC(=O)[C@H](Cc1ccccc1)NC(=O)[C@H](CCCNC(=N)N)NC(=O)[C@H](C)NC(=O)[C@H](CC(C)C)NC(=O)[C@H](CCCNC(=N)N)NC(=O)[C@H](CCC(N)=O)NC(=O)[C@@H](NC(=O)[C@H](C)NC(=O)[C@@H]1CSSC[C@H](NC(=O)[C@@H](N)CCCCNC(=O)COCCOCCNC(=O)CC[C@H](NC(=O)CCCCCCCCCCCCCCCCCCC(=O)O)C(=O)O)C(=O)N[C@@H](CC(N)=O)C(=O)N[C@@H]([C@@H](C)O)C(=O)N[C@@H](C)C(=O)N[C@@H]([C@@H](C)O)C(=O)N1)[C@@H](C)O)C(=O)N1CCC[C@H]1C(=O)N[C@@H](CO)C(=O)N[C@@H](CO)C(=O)N[C@H](C(=O)N1CCC[C@H]1C(=O)N[C@H](C(=O)NCC(=O)N[C@@H](CO)C(=O)N[C@@H](CC(N)=O)C(=O)N[C@H](C(=O)N[C@@H](Cc1ccc(O)cc1)C(N)=O)[C@@H](C)O)C(C)C)[C@@H](C)O, also called compound 64) | 0.378 | 22.9 | –
6 | K([AEEA-γGlu-C20 diacid])CNTATCATQRLAAFLRHSSPNFGAIPSSTPVGSNTY-NH2 (disulfide 2-7; N-terminus assumed; SMILES CC[C@H](C)[C@H](NC(=O)[C@H](C)NC(=O)CNC(=O)[C@H](Cc1ccccc1)NC(=O)[C@H](CC(N)=O)NC(=O)[C@@H]1CCCN1C(=O)[C@H](CO)NC(=O)[C@H](CO)NC(=O)[C@H](Cc1c[nH]cn1)NC(=O)[C@H](CCCNC(=N)N)NC(=O)[C@H](CC(C)C)NC(=O)[C@H](Cc1ccccc1)NC(=O)[C@H](C)NC(=O)[C@H](C)NC(=O)[C@H](CC(C)C)NC(=O)[C@H](CCCNC(=N)N)NC(=O)[C@H](CCC(N)=O)NC(=O)[C@@H](NC(=O)[C@H](C)NC(=O)[C@@H]1CSSC[C@H](NC(=O)[C@@H](N)CCCCNC(=O)COCCOCCNC(=O)CC[C@H](NC(=O)CCCCCCCCCCCCCCCCCCC(=O)O)C(=O)O)C(=O)N[C@@H](CC(N)=O)C(=O)N[C@@H]([C@@H](C)O)C(=O)N[C@@H](C)C(=O)N[C@@H]([C@@H](C)O)C(=O)N1)[C@@H](C)O)C(=O)N1CCC[C@H]1C(=O)N[C@@H](CO)C(=O)N[C@@H](CO)C(=O)N[C@H](C(=O)N1CCC[C@H]1C(=O)N[C@H](C(=O)NCC(=O)N[C@@H](CO)C(=O)N[C@@H](CC(N)=O)C(=O)N[C@H](C(=O)N[C@@H](Cc1ccc(O)cc1)C(N)=O)[C@@H](C)O)C(C)C)[C@@H](C)O, also called compound 72) | 0.106 | 4.76 | –
